Test results: paper PMC7616425, “Transient Structural Properties of the Rho GDP-Dissociation Inhibitor” (Angewandte Chemie (International ed. in English), 2024)

B2: Alexa647-labeled RhoGDI1 L56G (natural protein, bovine, UniProt P19803 1-204, looked up)
chain: MAEQEPTAEQLAQIAAENEEDEHSVNYKPPAQKSIQEIQELDKDDESLRKYKEALGGRVAVSADPNVPNVVVTRLTLVCSTAPGPLELDLTGDLESFKKQSFVLKEGVEYRIKISFRVNREIVSGMKYIQHTYRKGVKIDKTDYMVGSYGPRAEEYEFLTPMEEAPKGMLARGSYNIKSRFTDDDRTDHLSWEWNLTIKKEWKD
modifications: Alexa647 acceptor (site not stated)

Experiments:
[1] = target: Cdc42, homogeneously geranylgeranylated in vitro (UniProt P60953 1-191, geranylgeranylated in vitro (residue not stated)); experiment: cell-based or functional assay
[2] = target: T1, Alexa647-labeled RhoGDI1 (wt) (bovine, UniProt P19803 1-204, Alexa647 acceptor (site not stated)); experiment: not stated; association rate constant determined independently for wildtype GDI (Figure S17); conditions: both partners purified
T1 construct: also called wildtype GDI; wt RhoGDI
T1 sequence (looked up): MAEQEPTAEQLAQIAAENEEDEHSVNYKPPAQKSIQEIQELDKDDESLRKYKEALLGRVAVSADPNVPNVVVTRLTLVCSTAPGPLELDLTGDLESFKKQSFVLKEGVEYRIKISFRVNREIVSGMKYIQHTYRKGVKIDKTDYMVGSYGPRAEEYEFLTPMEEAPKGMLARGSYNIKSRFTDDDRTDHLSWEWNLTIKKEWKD

[3] = target: T1, Alexa647-labeled RhoGDI1 (wt); experiment: FRET or BRET; dissociation assay: 80 nM dual-labeled complex (Alexa647 on RhoGDI1, Cy3 on Cdc42) mixed with excess (5 μM) unlabeled GDI; mono-exponential fits; KD calculated from the measured dissociation rate constant and the association rate constant measured for wt (assumed for the mutants); conditions: both partners purified
[4] = target: B2; experiment: as above; conditions: both partners purified

Sequence of Cdc42, homogeneously geranylgeranylated in vitro (P60953 whole entry): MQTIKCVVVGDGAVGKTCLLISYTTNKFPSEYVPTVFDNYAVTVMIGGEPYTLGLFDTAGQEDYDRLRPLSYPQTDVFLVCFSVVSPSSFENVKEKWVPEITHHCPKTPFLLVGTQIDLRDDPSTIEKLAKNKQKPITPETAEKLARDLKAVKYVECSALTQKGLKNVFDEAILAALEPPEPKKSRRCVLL

B1: full-length RhoGDI1 (residues 1 to 204), bovine (natural protein, UniProt P19803 1-204, looked up)
chain: MAEQEPTAEQLAQIAAENEEDEHSVNYKPPAQKSIQEIQELDKDDESLRKYKEALLGRVAVSADPNVPNVVVTRLTLVCSTAPGPLELDLTGDLESFKKQSFVLKEGVEYRIKISFRVNREIVSGMKYIQHTYRKGVKIDKTDYMVGSYGPRAEEYEFLTPMEEAPKGMLARGSYNIKSRFTDDDRTDHLSWEWNLTIKKEWKD
modifications: triply labeled (2H, 13C, 15N) in the NMR samples
With B1 the “inhibition of EDTA-induced Mant-GDP dissociation from prenylated Cdc42 with saturating (5 μM) RhoGDI, against free Cdc42” value [1] was 83 fold.

In the case of B2, the “acceleration of Mant-GDP dissociation from prenylated Cdc42 with 5 μM RhoGDI L56G, against wt RhoGDI” value [1] is reported as 5 fold.

B3: Cy3-labeled, prenylated Cdc42 (natural protein)
chain: not shown
modifications: prenylated (residue not stated); Cy3 donor (site not stated)
notes: Cdc42, Rho family small GTPase
B3 showed a kon [2] of 5e+06 M⁻¹ s⁻¹, a Kd [3] of 0.09 nM and a koff [3] of 0.0004 s⁻¹. The Kd [4] was 4 nM and the koff [4] was 0.2 s⁻¹.
